Assay results taken from patent US6994959, “G-rich oligo aptamers and methods of modulating an immune response” (Valeant Research & Development).

Experiments:
Sp1 [1] = target: T1, Sp1 (UniProt P08047 P08047:2-785); experiment: competition; control oligo did not compete; about 70-100 molar excess; settings: tags: Promega purified Sp1
Experimental: (§1) In an effort to restrict the precise Sp1 binding region in 28b to the G-rich motif in the CD28 promoter region –197 to +28, we synthesized a double stranded (ds) 30mer oligo called 28b oligo (Seq #1 Table 1) which contains the 12mer GGGGAGGAGGGG within its sequence. We hypothesized that this was a Sp1 binding site in the CD28 promoter region. Following 32P-labeling, 28b oligo was incubated with Sp1 extract and indeed they bind to each other (FIG. 5, band A, lane 2 and 3). Competition with cold ds 28b oligo caused the band to disappear showing indeed that the binding was specific to Sp1 (lane 4). […] The consequence of this interaction is the prevention of Sp1 binding to the Sp1 site at –51 to –22 in the promoter region and which inhibits Sp1-mediated transcription of the CD28 gene and decreases expression of the mature CD28 protein.

Sp1 [2] = target: T1, Sp1; experiment: competition; competes with 32P ds 28b oligo; about 70-100 molar excess; settings: tags: Promega purified Sp1
Experimental: as §1

Sp1 [3] = target: T1, Sp1; experiment: EMSA; band A; competed by cold ds 28b oligo; room temperature; settings: tags: Promega purified Sp1; label: 32P
Experimental: as §1

T1 sequence (P08047 2-785, one chain of several): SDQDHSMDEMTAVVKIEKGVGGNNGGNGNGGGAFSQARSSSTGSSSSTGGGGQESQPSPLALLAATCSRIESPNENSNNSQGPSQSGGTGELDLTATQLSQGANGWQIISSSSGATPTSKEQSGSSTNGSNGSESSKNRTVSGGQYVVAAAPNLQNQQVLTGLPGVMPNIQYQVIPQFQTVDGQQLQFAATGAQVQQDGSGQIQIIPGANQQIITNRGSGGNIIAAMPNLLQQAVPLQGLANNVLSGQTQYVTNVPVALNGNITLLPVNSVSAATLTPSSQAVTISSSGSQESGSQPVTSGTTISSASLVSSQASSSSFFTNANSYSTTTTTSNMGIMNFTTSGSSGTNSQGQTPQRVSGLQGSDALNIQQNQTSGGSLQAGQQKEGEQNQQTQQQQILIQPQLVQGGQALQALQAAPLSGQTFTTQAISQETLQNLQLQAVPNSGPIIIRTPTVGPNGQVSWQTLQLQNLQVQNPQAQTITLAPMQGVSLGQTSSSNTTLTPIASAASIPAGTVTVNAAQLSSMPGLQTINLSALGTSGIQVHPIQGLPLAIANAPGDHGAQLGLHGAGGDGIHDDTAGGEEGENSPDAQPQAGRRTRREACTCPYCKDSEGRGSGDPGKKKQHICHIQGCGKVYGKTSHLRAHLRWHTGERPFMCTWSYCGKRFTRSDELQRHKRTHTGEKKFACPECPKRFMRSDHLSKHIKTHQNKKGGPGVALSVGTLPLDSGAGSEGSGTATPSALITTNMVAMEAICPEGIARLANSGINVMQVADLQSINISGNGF

TTCCAGCCCCTCCTCCCC (ssDNA, PS all linkages) [ICN 16476]
binding result (Sp1 [1]): no binding

GGGGAGGAGGGGCTGGAA (ssDNA, PS all linkages) [ICN 16481]
binding result (Sp1 [2]): binds

TTGGAGGGGGTGGTGGGG (ssDNA, PS all linkages) [ICN 16064]
binding result (Sp1 [2]): binds

B1: 28b oligo (-51 to -22) (dsDNA)
DNA 1: GGGTTCCTCGGGGAGGAGGGGCTGGAACCC
DNA 2: GGGTTCCAGCCCCTCCTCCCCGAGGAACCC
binding result (Sp1 [3]): binds
